Experiment [1] has as its target T1, phage peptide display Clone 3 (WSEFMRQSSL).
T1 peptide: WSEFMRQSSL
The experiment in a line: phage ELISA on coated 6B1 IgG4 after four rounds of panning. On the procedure:
(§1) Purified 6B1 IgG4 antibody at 10 μg/ml in 4 ml of PBS was coated onto a plastic tube (Nunc; maxisorp) by incubating overnight at 4° C. After washing and blocking with MPBS (see Example 1) an aliquot of the peptide library containing 5×10¹³ phage in 4 ml 3% MPBS was added to the tube and incubated at room temperature for 1.5 hours. The tube was washed 10 times with PBST(0.1%), then 10 times with PBS. Bound phage particles were eluted from the tube by adding 4 ml of 100 mM triethylamine and incubating the tube stationary for 10 minutes at room temperature. The eluted phage were then added to a tube containing 2 ml 1M-Tris.HCl (pH7.4) and 10 ml 2YT broth. The phage were then added to 20ml of logarithmically growing E. coli TG1 cells and grown for 1 hour shaking at 100 rpm at 37° C. The infected cells were then plated on 2YT agar medium with 15 μg/ml tetracycline in 243 mm×243 mm dishes (Nunc). Plates were incubated at 30° C. for 18 hours. Colonies were scraped off the plates into 10 ml 2TY broth containing 15% (v/v) glycerol for storage at −70° C.
(§2) These clones were screened for clones that bound specifically to the antibody 6B1 in ELISA. Cells from the master plates were used to inoculate 96 well tissue culture plates containing 100 μl 2YT broth (containing 15 μg/ml tetracycline) per well and grown overnight with gentle shaking at 100 rpm at 30° C. The plates were then centrifuged at 2000 rpm. The 100 μl phage supernatants from each well were recovered and each was mixed with 100 μl of 4% skimmed milk powder in 2×PBS. 100 μl of each of these was then assayed by phage ELISA. Purified 6B1 IgG4 antibody at 10 μg/ml in PBS was coated onto flexible microtitre plates by incubating overnight at 4° C. Control plates coated with an irrelevant IgG4 antibody at 10 μg/ml were also prepared. The ELISAs were performed as described in Example 1, and visualised with the chromagenic substrate pNPP (Sigma).

Experiment [2] deals with T2, phage peptide display Clone 2 (DPMDMVLKLC).
T2 peptide: DPMDMVLKLC
Described as above. On the procedure: as §1, §2

Experiment [3] concerns the target T3, phage peptide display clone VESTSLQFRG (fourth clone, printed as Clone 3).
T3 construct: also called Clone 3 (second of that label)
T3 peptide: VESTSLQFRG
The experiment is described as above. The procedure:
as §1, §2

Experiment [4] deals with T4, phage peptide display Clone 1 (RQLSLQQRMH).
T4 peptide: RQLSLQQRMH
The experiment is described as above. The procedure:
as §1, §2

A further experiment addresses T5, recombinant human TGFβ2 (human, UniProt P61812 303-414).
T5 construct: mature; also called TGFbeta2; rhTGFβ2
T5 sequence (looked up): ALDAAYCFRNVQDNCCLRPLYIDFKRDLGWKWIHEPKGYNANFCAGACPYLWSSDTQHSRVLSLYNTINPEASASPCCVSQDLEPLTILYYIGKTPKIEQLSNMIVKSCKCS
Kind of experiment: BIAcore 2000, koff divided by kon. The procedure:
To determine the kinetic parameters, a series of dilutions of the antibody samples was made in HBS from about 500 μg/ml down to less than 1 μg/ml, usually through doubling dilutions. After the antibody has been injected over the antigen surface, the surface is washed with HBS, then regenerated by stripping off the bound antibody with a pulse of 100 mM HCl. At the higher concentrations of antibody the antigen on the chip surface is saturated, and the off rate is determined on washing with buffer in the dissociation phase. For determination of the on-rate, lower concentrations of antibody are used, giving a linear binding phase in the sensorgram, allowing kₒₙ determination.
6B1 IgG4 was purified from the GS/NS0 cell line of Example 10 as in Example 2. 6B1 single chain Fv was expressed intracellularly in E. coli, refolded in vitro (using the methodology of WO94/18227), and purified to give a homogeneous product. The values of kₒₙ and koff were determined for 6B1 IgG4 for binding to both TGFβ2 and TGFβ3, and for the single-chain Fv 6B1 for binding to TGFβ2. The dissociation constant was calculated by dividing koff by kₒₙ.
(Surface plasmon resonance follows binding to a sensor surface in real time, without labels.)

B1: 6B1 IgG4 (antibody, V domains shown)
VH: EVQLVESGGGVVQPGRSLRLSCAASGFTFSSYGMHWVRQAPGKGLEWVAVIWYDGSNKYYADSVKGRFTISRDNSKNTLYLQMDSLRAEDTAVYYCGRTLESSLWGQGTLVTVSS
VL: SSELTQDPAVSVALGQTVRITCQGDSLRSYYASWYQQKPGQAPVLVIYGKNNRPSGIPDRFSGSSSGNTASLTITGAQAEDEADYYCNSRDSSSTHRGVFGGGTKLTVLG
notes: Whole antibody: human gamma 4 and human lambda constant regions; FITC-labelled in the human tissue study; also called antibody 6B1
Take B1: the binding result in experiment [1], in experiment [2], in experiment [3] and in experiment [4] was “binds” each time. The Kd (as a rule, the concentration at which binding is half-saturated) in the experiment with recombinant human TGFβ2 was 890 pM.

For the origin of these results see patent US20050049403A1 (CAMBRIDGE ANTIBODY TECHNOLOGY, published 2005).
